Measured values from patent US20190381184A1 (UNIVERSITY OF NORTH CAROLINA AT CHAPEL HILL, published 2019).

Experiments:
[1] = target: PD-L1; assay: Octet binding kinetics
[2] = target: PD-L1; assay: Octet (BLI); compared with the endogenous PD-1/PD-L1 interaction
[3] = target: PD-L1; assay: Octet (BLI) binding kinetics of the trivalent PD-L1 trap with PD-L1

Chain of PD-L1 (chain, as listed by the source): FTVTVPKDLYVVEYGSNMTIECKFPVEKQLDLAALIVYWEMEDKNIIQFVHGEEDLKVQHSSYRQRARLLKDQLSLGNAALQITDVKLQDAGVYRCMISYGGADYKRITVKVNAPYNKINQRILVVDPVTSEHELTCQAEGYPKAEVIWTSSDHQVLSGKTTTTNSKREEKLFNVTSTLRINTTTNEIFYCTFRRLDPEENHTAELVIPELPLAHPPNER

Kd [1]: ~16.2 pM
fold higher than between endogenous PD-1 and PD-L1 [2]: 10000 fold
Kd [3]: ~16 pM
B1: trivalent PD-L1 trap (PD-1 extracellular domain - flexible linker - CMP-1 trimerization domain fusion, self-assembled trimer) (other)
chain: GSGPPTFSPALLVVTEGDNATFTCSFSNTSESFVLNWYRMSPSNQTDKLAAFPEDRSQPGQDSRFRVTQLPNGRDFHMSVVRARRNDSGTYLCGAISLAPKAQIKESLRAELRVTERRAEGPQPQPKPQPKPEPEPQPQGGSEEDPCACESILKFEAKVEGLLQALTRKLEAVSGRLAVLENRIIAAAGAPVPYPDPLEPRGGSHHHHHH
notes: also called trimeric trap; trivalent protein
